Measured values taken from US10801046B2, “Methods and materials for biosynthesizing multifunctional, multivariate molecules via carbon chain modification” (INVISTA NORTH AMERICA S.A.R.L., priority 2016, dated 2020).

B1: SEQ ID NO: 173: Methylobacterium aquaticum aminotransferase (protein, listed as Methylobacterium aquaticum)
chain: MLSNLATRDVETLIHPYTNLAAFRQTGPLVLERGHGVWVYDTDGRPYLEGMAGLWCTALGYSNEELVEAAREQMSRLPFTHLFSGRSHDPAIELAETLKELAPIPVSKVFFTSSGSEANDTQVKLTWYLNNALGRPQKKKIIGRHKGYHGVTVASASLTGLTANHADWDLPLPGFLHAACPHHYRGAEAGETEEAYSARLATELEEMILREGPETVAAFIAEPVMGAGGAIVPPKGYFAAIEPVLARYDVRFIADEVICGFGRLGTWFGSEALGMKPHSLSFAKALTSAYMPLGGVTVDETLYQAMQDQSRKIGTFGHGTTYSGHPVASAVALKTIEIYRRDKIIEGAAEKAPHFQRRLSALEEHPLVGEAKGMGLIGGLEIVADKATKRQYDPKAGVAARCVAFAQEEGLIVRFLTGDRVAVCPPLVIRPDEIDTLFDRLGTALDRTQAWIREQGLTAA
B2: SEQ ID NO: 172: Pseudomonas taiwanensis SJ9 aminotransferase (protein)
chain: MSQSNILLAKKDVQHHLHPYTDARLHQDVGPLIIDRGEGVYVFDVEGKRYIEAMSGLWSVALGFSNERLVKAAEQQMRKLPFYHIFTHKGHGPSIELAEKLIEIAPVPMSKVFFTNSGSEANDTVVKMIWYRNNALGKPEKKKFISRLNAYHGITAVSASLTGLPVNQRGFDVPLPGFHHVSCPHFYRNGQPGETEEQFADRMAAELESVILREGPETIAAFYGEPLMGAGGVIVPPRTYWEKMQAVCRKYDILIVADEVICGFGRTGKMFGCETFGIQPDVMVISKQMSSSYQPIAAILINEKVFEGIADQSRALGTLGHGFTASGHPVASAVALENIKIIQEQNLVGHAAEMGELLRAKLAGFADHPMVGEVRGCGLIAAVELVTDRKTKAPFETVGRLGRFLAARAQAHGMITRPIGDSIAFCPPLISTKQEIQEIADIFGKAFEDTERWFSQGGK
modifications: Pseudomonas taiwanensis SJ9
notes: Pseudomonas taiwanensis SJ9 aminotransferase
B3: SEQ ID NO: 171: Tistrella mobilis aminotransferase (protein)
chain: MAYSPNSPEARDIAYHLHSYTDARRHEETGSVVLEKGDGVFVEDIHGNRYIEAMAGLWSVALGFSEKRLADAAARQMAKLPFAHTFSYKSNGPVIDLAEKLISLAPVPMSKVFFTNSGSEANDTILKLLWYRSNSMGQPQRKKIISRVRGYHGVTIASASLTGLPNNHRSFDLPIANVLHTGSPHHWKDANPGESEEDFATRRAEELEAMILAEGPETIMAFIGEPVMGAGGVVVPPATYWEKIQAVLAKYDILLIADEVICGFGRTGNMFGSQTYDMRPDIMTMSKQLSSSYLPISAFMINEKVYGPIADESHRIGVLGHGFTAGGHPVASAVALENLKIIEERDLVANAREMGERLRGRFHALEGHPLVGEVRGVGLIAAVELVTNKEAKTALEAPGALGGKVAAALQARGVIVRNMLDAIAFCPPLIIKAEEVDMIADRFEAVLNDVAAEVL
modifications: Tistrella mobilis (strain KA081020-065)
notes: Tistrella mobilis aminotransferase
B4: SEQ ID NO: 169: Marine sediment metagenome aminotransferase (protein)
chain: MTVQPNSIEARDIAFHLHSYTNARKHETNGPVVIDKGEGVFVTDTDGNRYIEAMAGLWSVAVGFGEKRLVDAAAKQMGKLPYYHTFTHKSHSPAIELAEKLVAMAPVPMSKAYFTNSGSEANDTMMKLVRYRSNALGQPQKKKFISRMRGYHGVTLASASLTGLVNNHRDFDLPIEGVLHTTCPHYWREGRDGESEEDFATRCAEDLEAMIQAEGPETIAAFIGEPVMGAGGVVVPPATYWEKIQAVLKRHDILLVADEVICGFGRTGEMFGSQTYGIEPDIMTLSKALSSSYLPISALLINEKVYGPIADRSAEIGTLGTGYTASGHPVAAAVALENLKIIEERDLVGNAREMGTLMQCRLRELENHPLVGEVRGVGLIAAIELVTDKKAKVAMQPPGAMAAQAFAILQKNGVISRAIGDALAFCPPLIIEAGHIDTIVETTRRSLDELQASL
modifications: Description of Unknown: Marine sediment metagenome
notes: Marine sediment metagenome aminotransferase
B5: SEQ ID NO: 138: Thalassospira profundimaris WP0211 aminotransferase (protein)
chain: MNHRPNSLHMSDIAHSMHPYTNMRLHEEKGPMIMAEGNGARVTDSEGKEYIEGLAGLWSVAVGFSETRLADAAYAQLKRLPYYHSFAHKAHEPSIRLAEKLVEMTPEGLNRVFFTNSGSEANDTVVKMAWFLNNGLGRPEKKKFLSRTKAYHGITIASGSLTGLAGNQKDFDLPAIPVTHLSCPHFWRYGEEGETETEFTARLLKELEDTIIAEGPETIAAFIGEPVMGAGGVMTPPEGYWPGVVEICHKYDILVVSDEVINGFGRTGARFGCEKYGFTPDILVTSKQLTSSYMPLAAIVVNDKVYNAIADNTAKLGNFGHGFTGTGHPVACAVGLENLNIIEERDLMGNAKRLEPMFQDGLRAFADHPLIGEIRGVGLIAGLEMADKKTKQPFGKPGTVAAKVVALAAEEGLICRNVYDTVALCPPLIVTEDDVREIHARLGRALDRALDWAKSEGML
modifications: Thalassospira profundimaris WP0211
notes: Thalassospira profundimaris WP0211 aminotransferase
B6: SEQ ID NO: 121: Haematobacter missouriensis aminotransferase (protein, listed as Haematobacter missouriensis)
chain: MMDTLPNSLAARDVKYLLHPNTNARMHEQNGPMVISRGDGIHVYDDAGKEYIEALAGLWSVAVGFGEKRLVEAAQRQMSTLPYYHIFSSKSHEPAIDLAETLVKMTPEHLTRVFYTNSGSEANDTVVKMIWYYNNVLGRPEKKKIIARKNGYHGITVASASLTGLPINHKDFDLPLPQMKHVTTPHFYRFGEEGETEEQFSDRLAQEIEDMILAEGPETVAAFIGEPVIGAGGVLVPPKGYWEKVQKVLKKYDILLVADEVIMGFGRSGKTFACEYYGIKPDFLVLSKQITSSYQPLAAIMLTDAIYQAIADGSQKNGAFGHGYTASGHPVAMAVAIENLKIIEERGLVANAEKVGAYMQKRLREFADHPLVGEVRGVGLIAAVELVADKATKAKFDPVGKAGAIYTRKSAENGLINRAIGDTICFCPPLIITEAQVDEMIARFSKSLDETAAELKG
B7: SEQ ID NO: 170: Acidimicrobium ferrooxidans aminotransferase (protein)
chain: MGRFWHPFGQLYESDTNPVVFVRGEGIWVYDDTGRRYLDATAALWYANVGHGRAEIADAIAAQARELAGYSTFGTFSNRPAEELAEFLSARSPMPESEVFFVSGGGDAVETAVKLARRYFSLVGQPERTVLISRTNGYHGTWGFGTSLGGIPANRTGFGELIPTTVQVPWDDVEAVEAAIVANGPERVAAVIAEPVIGAGGVYPPPPGYFEALGATCRRHGVLLIVDSVICGFGRLGTWFGIERLGVEPDLITFAKGVTSGYLPLGGVMVSGRVAAPFKQPGAPVFRHGPTYGGHPTCTAAGIANCRILEDEQILARGAVLEGELLARLRPLASSALVAEVRGGLGLLGAVELRSDLLAEHPDALARLARLALERGIIVRVLATSIALSPPLIIEPAEIGVIVEGLADALDALAAEL
modifications: Acidimicrobium ferrooxidans; Acidimicrobium ferrooxidans (strain DSM 10331 / JCM 15462 / NBRC 103882 / ICP)
notes: Acidimicrobium ferrooxidans aminotransferase
B8: SEQ ID NO: 174: Candida tenuis aminotransferase (protein, listed as Candida tenuis)
chain: MNSSKSQICLATERQYSAKNYTPMPVVFKKAIGCKVWDVDDNEYLDFGGSYCATNQGHSHPKIVQALIDQAQICALPSRAFTHNLYGDYIKFVCQYFDFEKALPLNGGSEAIEFAIKLARAWGYTKKGISQNEAIVLFAANNYHGRTLGSTSASTTPGARKNYGPFLPKVGPYYGSEGKFIRYNHIEDIEEAFKTDGPNIAAIVLESLQGEAGIYVPKDGYLQQVKRLCEEYNILYIADEVQMGAGRTGTLLSCEQDGIKPDVLVVAKSIGGGVYPTSLVLSSGEIMDCIEPNSHGATFSGSPLSCATSKVALEVLIEDNMIDNAKHLGKIMLDGLNSIREKSSIITDVRGRGLMAGFDIDESQLNGKKVWHVCMLLRSKGIICKMVHAKTIRWAPALVITEEELRFGLRMLEQTINEITALEIADIPDAVTFDYLRY
modifications: Candida tenuis (strain ATCC 10573 / BCRC 21748 / CBS 615 / JCM 9827 / NBRC 10315 / NRRL Y-1498 / VKM Y-70)
notes: Candida tenuis aminotransferase
B9: SEQ ID NO: 168: Rhodospirillum centenum aminotransferase (protein)
chain: MPSTAPHLGNSIASRDIASLLHPYTNLKAHESVGPMVITGGRGVTVVDDAGREYIEGVAGLWCTSLGFDEPRLVEAAVRQLRTLPFYHAFAHKSHEPGIELAEKLVALAPVPMSKAFFACSGSEANDTAVKLVWYYNNALGRPQKKKIIGRIKAYHGVTVASASLTGLPNNHRDFDLPIDRILHTDCPHWYRFHEEGEDEEAFASRLAASLEALIQREGPETVAAFIAEPVMGAGGVIVPPRTYFEKIQAVLRKHDVLLIADEVICGFGRTGAMFGSETFGLKPDIMTMAKALTSAYMPLSAVLVSEPIYRACVAESEKIGVFGHGYTYSGHPVSCAVALETLKIYEERDIVAHTRAVGARLQEGLARYRSHPLVGEVRGVGLIAGVELVADKATRQPFDPKLGVAARLAGFAQGHGAILRPIGDTLGFSPPLIITPEEVDELVARFGRALDDTTAWLEHEHRFRPA
modifications: Rhodospirillum centenum (strain ATCC 51521 / SW)
notes: Rhodospirillum centenum aminotransferase

experiment: In vivo aminotransferase activity screening, 7-aminoheptanoate by LC-MS; assay type: cell-based, Escherichia coli; conditions: in vivo conversion of 7-oxoheptanoate to 7-aminoheptanoate, 120 aminotransferases screened
Procedure: A 165-member aminotransferase library from Twist on IPTG-inducible T7- pUC expression vectors was co-transformed into T7 Express lysY/Iq with a constitutive expression pJ23150-derived plasmid bearing the phosphopantetheinyl transferase sfp from Bacillus subtilis, CAR_Srot from Invista and BioC from Serratia marcescens (UniprotKB Accession No. P36571 (SEQ ID NO: 165)). The resulting strains were incubated in 0.5 ml of rich media (terrific broth or LB containing 8% glycerol) supplemented with 0.4 mM IPTG and received 1 g/L monomethyl heptanedioate, 1 g/L heptanedioate, or no organic acid addition, depending on the experiment. Following incubation overnight at 37° C. in a shaking incubator, cells were pelleted and the supernatants were analyzed using LC-MS for 7-aminoheptanoate or monomethyl 7-aminoheptanoate. A Vibrio fluvialis aminotransferase (UniProtKB Accession No. F2XBU9 (SEQ ID NO: 128)) was used as a positive control.

Molecule | 7-aminoheptanoate yield compared to the positive control (F2XBU9)
B1 | higher 7-aminoheptanoate yields
B2 | higher 7-aminoheptanoate yields
B3 | higher 7-aminoheptanoate yields
B4 | higher 7-aminoheptanoate yields
B5 | higher 7-aminoheptanoate yields
B6 | higher 7-aminoheptanoate yields
B7 | higher 7-aminoheptanoate yields
B8 | higher 7-aminoheptanoate yields
B9 | higher 7-aminoheptanoate yields
